# Reference: US20240191187A1, “MEDIA AND METHODS FOR GROWING MAMMARY ORGANOIDS” (STEMCELL TECHNOLOGIES CANADA INC., priority 2021, published 2024)
# Tests used:
# [1] = tested on: human mammary epithelial cells; test: Human mammary organoid cell lineage balance by flow cytometry; conditions: for cell lineage balance, BMP signaling modulators: ~50 ng/mL BMP2 or BMP4, ~25-200 ng/mL NOGGIN or ~10-100 nM LDN193189
# Experimental: (§1) Cryopreserved pellet A and pellet B were dissociated into a single cell suspension by treatment with 0.25% Trypsin-EDTA for 5 minutes at 37° C. (with intermittent trituration) and then centrifuged at (300 g for 5 minutes). The supernatant was discarded and the pellet was resuspended in a 100 μg/ml DNase solution for 1 minute at room temperature. The resulting cells were passed through a 37 μm strainer to obtain the single cell suspension.
# Organoids were formed in media comprising either BMP signaling activator, ˜50 ng/mL BMP2 or ˜50 ng/mL BMP4, and in media comprising either BMP signaling inhibitor, ˜25-200 ng/mL NOGGIN or ˜10-100 nM LDN193189. Just prior to the first passage, the formed organoids were dissociated and the cell lineage balance was analyzed by flow cytometry.
# Organoids were formed in media comprising either no ligand of an ERBB receptor family member, or comprising ˜10-50 ng/mL amphiregulin (AREG), ˜10-50 ng/mL epidermal growth factor (EGF), or ˜50-100 ng/mL heregulin/neuregulin 1 (NRG1). Just prior to the first passage, the formed organoids were dissociated and the cell lineage balance was analyzed by flow cytometry.
# Just prior to the first passage, the formed organoids were dissociated and the cell lineage balance was analyzed by flow cytometry.
# [2] = tested on: human mammary epithelial cells; test: Human mammary organoid formation, brightfield microscopy; type: cell-based
# Experimental: Fragments of human mammary epithelial cells were isolated from tissue samples obtained from academic collaborators, as follows. Resected tissue samples were minced in a petri dish using a scalpel to cut in a cross-hatched pattern. The minced tissue samples were placed in a dissociation flask in standard culture medium supplemented with BSA, insulin, collagenase and hyaluronidase. The flask was gently shaken overnight on an orbital shaker placed in a 37° C. tissue incubator. The following morning the floating layer of fat was removed by pipette, and the remaining liquid was transferred to a tube and briefly centrifuged at low rpm (˜80 g for 30 seconds). The pellet (A pellet) was set aside and the supernatant was further centrifuged for an incrementally longer period of time and at an incrementally higher rpm (˜200 g for 4 minutes). The pellet (B pellet) was set aside and the supernatant was further centrifuged for a still incrementally longer period of time and at an incrementally higher rpm (˜450 g for 5 minutes).
# Cryopreserved pellet A and pellet B were dissociated into a single cell suspension by treatment with 0.25% Trypsin-EDTA for 5 minutes at 37° C. (with intermittent trituration) and then centrifuged at (300 g for 5 minutes). The supernatant was discarded and the pellet was resuspended in a 100 μg/ml DNase solution for 1 minute at room temperature. […]
# [3] = tested on: mouse mammary epithelial cells; test: Mouse mammary organoid cell lineage balance by flow cytometry (EpCAM, CD49f); type: cell-based; conditions: non-sorted mouse cells; ~100 ng/mL NOGGIN and ~100 ng/mL RSPO-1 together vs free of both; 8 independent experiments; 14 days (P0)
# Experimental: Panels A) and B) show representative images of organoids after cells were cultured for 14 days (P0) in an R-spondin-containing (panel A) or an R-spondin-free (panel B) medium. Cells of the organoids shown in panels A) and B) were respectively analyzed by flow cytometry for expression of EpCAM and CD49f (panels C) and D)). A summary of flow cytometry data is shown in panel E. Results were confirmed in n=8 mice. Scale bars are 500 μm.
# A single cell suspension of mouse mammary epithelial cells was isolated from mammary glands, as follows. A resected mammary gland was minced and placed in a tube containing standard culture medium, including 50 μg/ml gentamycin, collagenase, and hyaluronidase. The mammary gland was incubated for 2 hours at 37° C. in the tissue incubator. Following the incubation, the cell dissociation mixture was washed in advanced DMEM and centrifuged at 300 g for 5 minutes. Depending on the appearance of the pellet, in some cases it is desirable to resuspend the pellet in ammonium chloride to lyse contaminating red blood cells. Following, the pellet is resuspended in 0.25% Trypsin-EDTA, as above, for 5 minutes at 37° C. and then centrifuged at (300 g for 5 minutes). The supernatant was discarded and the pellet was resuspended in a 100 μg/ml DNase solution for 1 minute at room temperature. […]
# [4] = tested on: mouse mammary epithelial cells; test: Mouse mammary organoid formation, organoid organization by brightfield/confocal imaging; type: cell-based; conditions: for type of organoids formed from bulk (non-sorted) mammary epithelial cells: RSPO comprising media vs media free of RSPO (luminal-biased/cystic)
# Experimental: A single cell suspension of mouse mammary epithelial cells was isolated from mammary glands, as follows. A resected mammary gland was minced and placed in a tube containing standard culture medium, including 50 μg/ml gentamycin, collagenase, and hyaluronidase. The mammary gland was incubated for 2 hours at 37° C. in the tissue incubator. Following the incubation, the cell dissociation mixture was washed in advanced DMEM and centrifuged at 300 g for 5 minutes. Depending on the appearance of the pellet, in some cases it is desirable to resuspend the pellet in ammonium chloride to lyse contaminating red blood cells. Following, the pellet is resuspended in 0.25% Trypsin-EDTA, as above, for 5 minutes at 37° C. and then centrifuged at (300 g for 5 minutes). The supernatant was discarded and the pellet was resuspended in a 100 μg/ml DNase solution for 1 minute at room temperature. The resulting cells were passed through a 37 μm strainer to obtain the single cell suspension.
# Each well received between 0.5-1 mL of any one of the various culture media described herein.
# The plated single cell suspension of mammary epithelial cells formed into organoids that were passaged approximately every 7-days, with 2-3 full medium changes during such 7-day period. To passage the organoids, the Matrigel domes were broken apart by pipetting in pre-warmed 0.25% Trypsin-EDTA, incubating at 37° C. for ˜ 5-15 minutes and pipetting again. The trypsinization reaction was inactivated by washing in an equal volume of Hanks Balanced Salt Solution supplemented with 2% FBS. Depending on the density and size of organoids a 1:2-1:5 split was performed, with the cells seeded as domes, as described above. Alternatively, cells would be strained through a 37 μm strainer to obtain the single cell suspension and seeded in Matrigel domes as described above.
# Single cell suspensions of mouse mammary epithelial cells were obtained in accordance with Example 1. The single cell suspension was sorted using a BD FACSAria™ Fusion flow cytometer into three populations of cells corresponding to the ER^+, milk, and basal cell lineages, based on the differential expression of EpCAM, CD49f, and CD49b. Non-epithelial cells were further eliminated during the sorting strategy based on the expression of CD45, Ter119 and CD31. The sorted cells were seeded and cultured essentially as described in Example 2 in an organoid medium free of an exogenously-added inhibitor of BMP signaling and either comprising exogenously added RSPO-1 (˜100 ng/mL) or lacking exogenously added RSPO-1 (e.g. MammoCult™ Mouse Organoid Growth Medium, […] Technologies) (FIG. 2).
# Organoid media were formulated to lack either exogenously added RSPO-1 or RSPO-3, and they were tested on single cell suspensions of bulk mammary epithelial cells, obtained in accordance with Example 1 and seeded and cultured as described in Example 2. […] Flow cytometry analysis of the cellular composition of organoids formed in either RSPO-comprising media or media lacking RSPO confirmed a reduction in the number of basal cells among organoids formed in the absence of WNT agonism (FIG. 3B).
# In a follow-up experiment, organoids were formed from single cell suspensions obtained in accordance with Example 1, and seeded and cultured as described in Example 2. […] At the end of the second passage the formed organoids were processed and stained for K8, K14, and DAPI, as described in Example 3.
# The foregoing experiments were performed in a medium that included an inhibitor of BMP signaling, thus the effect of BMP signaling inhibition on the formation of mouse mammary organoids was explored.
# [5] = tested on: human mammary epithelial cells; test: Total cell count among formed human mammary organoids; type: cell-based
# Experimental: as §1
# Each well received between 0.5-1 mL of any one of the various culture media described herein. […]
# The effects of modulating signaling through BMP were analyzed across multiple experiments in terms of total cell count among formed organoids (FIG. 9A) and the lineage balance of the cells among formed organoids (FIG. 9B).
# The effects of modulating signaling through an ERBB receptor family member were analyzed across multiple experiments in terms of total cell count among formed organoids (FIG. 13A) and the lineage balance of the cells among formed organoids (FIG. 13B).
molecule,measurement,setting,value
"TGFβ3: ligand of a TGFβ receptor (protein, UniProt P10600 301-412, looked up) Transforming growth factor …: ALDTNYCFRNLEENCCVRPLYIDFRQDLGWKWVHEPKGYYANFCSGPCPYLRSADTTHSTVLGLYNTLNPEASASPCCVPQDLEPLTILYYVGRTPKVEQLSNMVVKSCKCS","cell lineage balance, TGFβ receptor ligands","[1]; ~50 ng/mL, just prior to first passage",results consistent with TGF β1
"RSPO-1: WNT signaling agonist, an R-spondin (protein, UniProt Q2MKA7 21-263, looked up) R-spondin-1: SRGIKGKRQRRISAEGSQACAKGCELCSEVNGCLKCSPKLFILLERNDIRQVGVCLPSCPPGYFDARNPDMNKCIKCKIEHCEACFSHNFCTKCKEGLYLHKGRCYPACPEGSSAANGTMECSSPAQCEMSEWSPWGPCSKKQQLCGFRRGSEERTRRVLHAPVGDHAACSDTKETRRCTVRRVPCPEGQKRRKGGQGRRENANRNLARKESKEAGAGSRRRKGQQQQQQQGTVGPLTSAGPA",luminal-biased organoids with vs without exogenously-added RSPO-1,"[2]; luminal-promoting organoid medium, ~20-200 ng/mL RSPO-1",did not reveal a significant increase or reduction of luminal-biased organoids
same,lineage balance in medium free of NOGGIN and RSPO-1 vs medium comprising both,[3],a significant reduction of basal cells with a concomitant increase in luminal cells
same,organization of organoids formed in the absence of RSPO-1 over three successive passages,"[4]; non-sorted mouse cells, P0-P2, absence vs presence of RSPO-1, medium included BMP signaling inhibitor",cystic organization devoid of branching
same,type of organoids formed from bulk (non-sorted) mammary epithelial cells,[4]; non-sorted mouse cells,yielded a significant number of mixed organoids
same,organoid formation from sorted ER+ lineage cells,"[4]; sorted mouse ER+ luminal cells, medium with ~100 ng/mL RSPO-1 vs lacking RSPO-1, no BMP signaling inhibitor",generally the same efficiency in either of the tested medium formulations
same,organoid organization from sorted basal lineage cells,"[4]; sorted mouse basal lineage cells, RSPO-1 (~100 ng/mL) containing medium vs RSPO-1 deficient",a predominately mixed organization
same,organoid organization from sorted milk lineage cells,"[4]; sorted mouse milk lineage cells, RSPO-1 (~100 ng/mL) containing medium vs RSPO-1 deficient (cystic)","a more mixed organization of basal, luminal and other cells"
"BMP4: BMP signaling activator (protein, UniProt P12644 293-408, looked up) Bone morphogenetic protein 4: SPKHHSQRARKKNKNCRRHSLYVDFSDVGWNDWIVAPPGYQAFYCHGDCPFPLADHLNSTNHAIVQTLVNSVNSSIPKACCVPTELSAISMLYLDEYDKVVLKNYQEMVVEGCGCR","cell lineage balance, BMP signaling modulators",[1]; just prior to first passage,significant increase in basal cells and reduction in luminal cells
same,"total cell count among formed organoids, BMP signaling modulators",[5]; vs condition where BMP signaling not modulated or inhibited,a marked net loss of total cells
"RSPO-3: WNT agonist, an R-spondin (protein, UniProt Q9BXY4 22-272, looked up) R-spondin-3: QNASRGRRQRRMHPNVSQGCQGGCATCSDYNGCLSCKPRLFFALERIGMKQIGVCLSSCPSGYYGTRYPDINKCTKCKADCDTCFNKNFCTKCKSGFYLHLGKCLDNCPEGLEANNHTMECVSIVHCEVSEWNPWSPCTKKGKTCGFKRGTETRVREIIQHPSAKGNLCPPTNETRKCTVQRKKCQKGERGKKGRERKRKKPNKGESKEAIPDSKSLESSKEIPEQRENKQQQKKRKVQDKQKSVSVSTVH",type of organoids formed from bulk (non-sorted) mammary epithelial cells,[4]; non-sorted mouse cells,yielded a significant number of mixed organoids
"amphiregulin (protein, UniProt P15514 101-187, looked up, ligand of ERBB1) Amphiregulin: SVRVEQVVKPPQNKTESENTSDKPKRKKKGGKNGKNRRNRKKKNPCNAEFQNFCIHGECKYIEHLEAVTCKCQQEYFGERCGEKSMK","cell lineage balance, ERBB receptor family ligands","[1]; just prior to first passage, ~10-50 ng/mL AREG, ~10-50 ng/mL EGF, ~50-100 ng/mL NRG1",a minor or no effect on cell lineage balance
same,"cell lineage balance across multiple experiments, ERBB ligands","[1]; normalized to control lacking ERBB modulators, mean of 2 experiments",minimal impact on luminal cell percentages but profound impact on increasing basal cell percentages
same,"total cell count among formed organoids, ERBB modulators",[5]; vs control with no modulation of ERBB signaling,highest mitogenic activity
"NOGGIN: protein inhibitor of BMP signaling (protein, UniProt Q13253 28-232, looked up) Noggin: QHYLHIRPAPSDNLPLVDLIEHPDPIFDPKEKDLNETLLRSLLGGHYDPGFMATSPPEDRPGGGGGAAGGAEDLAELDQLLRQRPSGAMPSEIKGLEFSEGLAQGKKQRLSKKLRRKLQMWLWSQTFCPVLYAWNDLGSRFWPRYVKVGSCFSKRSCSVPEGMVCKPSKSVHLTVLRWRCQRRGGQRCGWIPIQYPIISECKCSC","formation of luminal organoids, single vs dual BMP signaling inhibitor","[2]; media comprising NOGGIN or LDN193189 alone vs both, successive passages",appeared sufficient to bias formation of luminal organoids
same,"cell lineage balance, BMP signaling modulators",[1]; just prior to first passage,decreased the number of basal cells while increasing the number of luminal cells
same,lineage balance in medium free of NOGGIN and RSPO-1 vs medium comprising both,[3],a significant reduction of basal cells with a concomitant increase in luminal cells
